Experimental data as given in patent publication US20180162928A1 (Janssen / Centocor, published 2018).

How the values were obtained:
Assay in all cases: ELISA, lysate on plate-bound antigen
[1] = biological target: T1, recombinant biotinylated PD-L1 (rhPD-L1/Fc Chimera, R&D Systems 156-B7) (human, UniProt Q9NZQ7 19-238, biotinylated (sites not given))
T1 construct: Bought Fc chimera; also called human PD-L1
Procedure: Streptavidin-coated Maxisorp plates (Nunc catalog 436110) were blocked for 1 h in Starting Block T20 (Pierce) and then coated with biotinylated PD-L1 (using same antigen as in panning) or negative controls (an unrelated Fc-fused recombinant protein and human serum albumin) for 1 h. Plates were rinsed with TBST and diluted lysate was applied to plates for 1 h. Following additional rinses, wells were treated with HRP-conjugated anti-FN3 domain antibody (PAB25) for 1 h and then assayed with POD (Roche catalog 11582950001).

[2] = biological target: human serum albumin (human) (UniProt P02768)
[3] = biological target: unrelated Fc-fused recombinant protein

T1 sequence (Q9NZQ7 19-238, change not shown): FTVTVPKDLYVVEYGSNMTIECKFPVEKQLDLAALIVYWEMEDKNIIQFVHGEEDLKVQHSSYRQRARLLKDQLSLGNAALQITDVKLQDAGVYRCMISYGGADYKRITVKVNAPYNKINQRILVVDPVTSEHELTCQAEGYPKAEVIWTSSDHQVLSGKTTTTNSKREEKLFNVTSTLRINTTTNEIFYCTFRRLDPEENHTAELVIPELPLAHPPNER
Sequence of human serum albumin (human) (P02768 25-609 limits assumed): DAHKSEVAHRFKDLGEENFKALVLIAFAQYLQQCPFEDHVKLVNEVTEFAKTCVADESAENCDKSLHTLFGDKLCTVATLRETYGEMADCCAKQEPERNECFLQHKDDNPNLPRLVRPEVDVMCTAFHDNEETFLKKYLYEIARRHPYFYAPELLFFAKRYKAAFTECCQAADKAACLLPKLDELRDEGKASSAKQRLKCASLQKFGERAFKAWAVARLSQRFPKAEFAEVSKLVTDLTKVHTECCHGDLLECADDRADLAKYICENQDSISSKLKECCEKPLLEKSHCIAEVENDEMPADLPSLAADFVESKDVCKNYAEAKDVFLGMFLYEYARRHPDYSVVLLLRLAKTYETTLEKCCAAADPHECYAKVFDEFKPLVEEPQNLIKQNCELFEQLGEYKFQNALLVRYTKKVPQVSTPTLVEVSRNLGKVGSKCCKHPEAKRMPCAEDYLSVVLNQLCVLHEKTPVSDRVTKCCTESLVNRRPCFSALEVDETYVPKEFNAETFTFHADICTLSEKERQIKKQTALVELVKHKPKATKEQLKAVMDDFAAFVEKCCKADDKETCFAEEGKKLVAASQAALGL

Row | Binder | ELISA PD-L1 Fc (RSU) [1] | ELISA HSA (RSU) [2] | ELISA Fc Control (RSU) [3]
1 | ISOP121BR5P1D11 (designed binder, not shown: small tags and cut ends, FN3 domain; E. coli lysate in the ELISA) LPAPKNLVVSRVTEDSARLSWFNADEEYFDSFLIQYQESEKVGEAIVLTVPGSERSYDLTGLKPGTEYTVSIYGVYVRAVRFVSSNPLSAIFTT | 2.44e+06 RSU | 1120 RSU | 800 RSU
2 | ISOP194BR9P1C8 (designed binder, not shown: small tags and cut ends, FN3 domain; E. coli lysate in the ELISA) LPAPKNLVVSRVTEDSARLSWYFAGELWFDSFLIQYQESEKVGEAIVLTVPGSERSYDLTGLKPGTEYTVSIYGVYQRGYHNWFSNPLSAIFTT | 6.11e+06 RSU | 1280 RSU | 640 RSU
3 | ISOP121BR5P1D6 (designed binder, not shown: small tags and cut ends, FN3 domain; E. coli lysate in the ELISA) LPAPKNLVVSRVTEDSARLSWKQGTSFHFDSFLIQYQESEKVGEAIVLTVPGSERSYDLTGLKPGTEYTVSIYGVQLLANDIISSNPLSAIFTT | 2.44e+06 RSU | 880 RSU | 560 RSU
4 | ISOP194ER9P1A11 (designed binder, not shown: small tags and cut ends, FN3 domain; E. coli lysate in the ELISA) LPAPKNLVVSRVTEDSARLSWTAPDAAFDSFRIAYYETMVSGEAIVLTVPGSERSYDLTGLKPGTEYAVIIKGVKGGKPSWPLSAIFTT | 4.35e+06 RSU | 880 RSU | 800 RSU
5 | ISOP194ER9P1A3 (designed binder, not shown: small tags and cut ends, FN3 domain; E. coli lysate in the ELISA) LPAPKNLVVSRVTEDSARLSWTAPDAAFDSFRIAYYETMVSGEAIVLTVPGSERSYDLTGLKPGTEYAVIIKGVKGGMVSWPLSAIFTT | 2.36e+06 RSU | 800 RSU | 560 RSU
6 | ISOP194ER9P1G3 (designed binder, not shown: small tags and cut ends, FN3 domain; E. coli lysate in the ELISA) LPAPKNLIVSRVTEDSARLSWTAPDAAFDSFRIAYYETMVSGEAIVLTVPGSERSYDLTGLKPGTEYAVIIKGVKGGKPSWPLSAIFTT | 4.29e+06 RSU | 720 RSU | 560 RSU
7 | ISOP194ER9P1H9 (designed binder, not shown: small tags and cut ends, FN3 domain; E. coli lysate in the ELISA) LPAPKNLVVSRVTEDSARLSWTAPDAAFDSFRIAYYETMVSGEAIVLTVPGSERSYDLTGPKPGTEYAVIIKGVKGGKPSWPLSAIFTT | 3.04e+06 RSU | 880 RSU | 720 RSU
8 | ISOP121AR5P1D11 (designed binder, not shown: small tags and cut ends, FN3 domain; E. coli lysate in the ELISA) LPAPKNLVVSRVTEDSARLSWEWLEHFDSFLIQYQESEKVGEAIVLTVPGSERSYDLTGLKPGTEYTVSIYGVYQRKVEFHSNPLSAIFTT | 393000 RSU | 1040 RSU | 640 RSU
9 | ISOP194AR9P1C3 (designed binder, not shown: small tags and cut ends, FN3 domain; E. coli lysate in the ELISA) LPAPKNLVVSRVTQNSARLSWEWLEHFDSFLIHYQESEKVGEAIVLTVPGSERSYDLTGLKPGTEYTVSIYGVYQRKVEFHSNPLSAIFTT | 3.55e+06 RSU | 5920 RSU | 56400 RSU
10 | ISOP194AR9P1C10 (designed binder, not shown: small tags and cut ends, FN3 domain; E. coli lysate in the ELISA) LPAPKNLVVSRVTEDSARPSWEWLEHFDSFLIQYQESEKVGEAIVLTVPGSERSYDLTGLKPGTEYTVSIYGVYNRKVNFYSNPLSAIFTT | 1.39e+07 RSU | 15000 RSU | 38200 RSU
11 | ISOP194AR9P1E8 (designed binder, not shown: small tags and cut ends, FN3 domain; E. coli lysate in the ELISA) LPAPKNLVVSRVTEDSARLSWEWLEHFDSFLIQYQESEKVGEAIVLTIPGSERSYDLTGLKPGTEYTVSIYGVYQRKVEFHSNPLSAIFTT | 3.4e+06 RSU | 67700 RSU | 6960 RSU
12 | ISOP194AR9P1E9 (designed binder, not shown: small tags and cut ends, FN3 domain; E. coli lysate in the ELISA) LPAPKNLVVSRVTEDSARLSWEWLEHFDSFLIQYQESEKVGEAIVLTVPGSERSYDLTGLKPGTEYTVSIYGVYQRKVNFYSNPLSAIFTT | 1.97e+07 RSU | 1600 RSU | 5520 RSU
13 | ISOP194AR9P1F2 (designed binder, not shown: small tags and cut ends, FN3 domain; E. coli lysate in the ELISA) LPAPKNLVISRVTEDSARLSWEWLEHFDSFLIQYQESEKVGEAIVLTVPGSERSYDLTGLKPGTEYTVSIYGVYNRKVNFYSNPLSAIFTT | 1.63e+07 RSU | 7520 RSU | 1920 RSU
14 | ISOP194AR9P1H9 (designed binder, not shown: small tags and cut ends, FN3 domain; E. coli lysate in the ELISA) LPAPKNLVVSRVTEDSARLSWEWLEHFDSFQIQYQESEKVGEAIVLTVPGSERSYDLTGLKPGTEYTVSIYGVYQRKVEFHSNPLSAIFTT | 2.59e+06 RSU | 11400 RSU | 21300 RSU
15 | ISOP121BR5P1A7 (designed binder, not shown: small tags and cut ends, FN3 domain; E. coli lysate in the ELISA) LPAPKNLVVSRVTEDSARLSWTTAFHNEYFDSFLIQYQESEKVGEAIVLTVPGSERSYDLTGLKPGTEYTVSIYGVYSRPKAEFTSNPLSAIFTT | 389000 RSU | 1120 RSU | 800 RSU
16 | ISOP194BR9P1E4 (designed binder, not shown: small tags and cut ends, FN3 domain; E. coli lysate in the ELISA) LPAPKNLVVSRVTEDSARLSWTTAFHNEYFDSFLIQYQESEKVGEAIVLTVPGSERSYDLTGLKPGTEYTVSIYGVYQRGYHNWFSNPLSAIFTT | 9.79e+06 RSU | 1440 RSU | 640 RSU
17 | ISOP194BR9P1G9 (designed binder, not shown: small tags and cut ends, FN3 domain; E. coli lysate in the ELISA) LPAPKNLVVSRVTEDSARLSWTTAFHNEYFDSFLIQYQESEKVGEAIVLTVPGSERSYDLTGLKPGTEYTVSIYGVYIRVQVLWFSNPLSAIFTT | 1.44e+07 RSU | 960 RSU | 640 RSU
18 | ISOP194BR9P1H4 (designed binder, not shown: small tags and cut ends, FN3 domain; E. coli lysate in the ELISA) LPAPKNLVVSRVTEDSACLSWTTAFHNEYFDSFLIQYQESEKVGEAIVLTVPGSERSYDLTGLKPGTEYTVSIYGVYSRPKAEFTSNPLSAIFTT | 4.06e+06 RSU | 3840 RSU | 3040 RSU
19 | ISOP194AR9P1D8 (designed binder, not shown: small tags and cut ends, FN3 domain; E. coli lysate in the ELISA) LPAPKNLVVSRVTEDSARLSWDTWNDFFDSFLIQYQESEKVGEAIVLTVPGSERSYDLTGLKPGTEYTVSIYGVYQRKVIWLSNPLSAIFTT | 923000 RSU | 6560 RSU | 12000 RSU
20 | ISOP194BR9P1D1 (designed binder, not shown: small tags and cut ends, FN3 domain; E. coli lysate in the ELISA) LPAPKNLVVSRVTEDSARLSWEHSLLNDQWFDSFLIQYQESEKVGEAIVLTVPGSERSYDLTGLKPGTEYTVSIYGVYQRGRALWYSNPLSAIFTT | 2.15e+06 RSU | 1280 RSU | 1360 RSU
21 | ISOP121HR5P1G9 (designed binder, not shown: small tags and cut ends, FN3 domain; E. coli lysate in the ELISA) LPAPKNLVVSRVTEDSARLSWTAPDAAFDSFPINYGERATKGEAINLYVPGSERSYDLTGLKPGTEYWVLIGGVKGGLKSSPLWAWFTT | 17800 RSU | 1760 RSU | 880 RSU
22 | ISOP121GR5P1B4 (designed binder, not shown: small tags and cut ends, FN3 domain; E. coli lysate in the ELISA) LPAPKNLIVSRVTEDSARLSWTAPDAAFDSFPINYGERATKGEAINLYVPGSERSYDLTGLKPGTEYWVLIGGVKGGLKSSPLWAWFTT | 16200 RSU | 560 RSU | 800 RSU
23 | ISOP194GR9P1C11 (designed binder, not shown: small tags and cut ends, FN3 domain; E. coli lysate in the ELISA) LPAPKNLVVSRVTEDSARLSWTAPDAAFDSFWIFYNERWQNGEAIRLTVPGSERSYDLTGLKPGTEYWVLIGGVKGGLKSSPLWAWFTT | 164000 RSU | 1440 RSU | 1040 RSU
